Experimental data: patent publication US20240279312A1 (Hoffmann-La Roche, published 2024)
Substitutions are numbered along the chain they refer to. Names and notes keep the numbering of the source. Values joined by “and” are separate entries in the source; they are usually repeats but may differ in a detail not shown here. Equal entries are not always repeated. Values belong to the molecule of their own block, whether it stands above or below them.

What was measured:
[1] = molecular target: recombinant von Willebrand Factor A1 domain (amino acids 1277-1453 of human vWF) (human) (UniProt P04275); assay: fluorescence anisotropy; particle-bound dimeric polypeptide titrated against 150 nM vWF A1-AlexaFluor 488
[2] = molecular target: T1, human von Willebrand Factor of human blood plasma (human, UniProt P04275 764-2813); assay: sandwich ELISA: polypeptide captured on anti-CD42b, plasma added, detection with polyclonal rabbit anti-human vWF-HRP
T1 construct: mature; Native plasma protein in ELISA samples; also called vWF; plasma vWF
Source text: FIG. 4A is a cartoon of the enzyme-linked immunosorbent assay (ELISA) used to generate the data in FIG. 4B-4D. A solid support was coated with anti-glycoprotein Ibα antibody (anti-CD42b), which was used to immobilize recombinant polypeptide comprising a modified extracellular domain of platelet glycoprotein Ibα (CD42b; GPIbα; GP1b constructs). The solid support was then contacted with human blood plasma, von Willebrand Factor calibrators, or von Willebrand Factor controls. The solid support was then contacted with a polyclonal rabbit anti-human von Willebrand Factor antibody to which horseradish peroxidase (HRP) was conjugated. The composition was then contacted with a substrate capable of being converted into a product by HRP with a strong absorbance at 450 nm, and absorbance was measured.
Enzyme immunosorbent assays (ELISA) were used to determine that recombinant polypeptides comprising the G233T (SEQ ID NO: 21), D235V (SEQ ID NO: 30), and K237V (SEQ ID NO: 31) mutations are capable of detecting qualitative differences in vWF binding affinity. […] Briefly, the wells of a multi-well plate were coated with an anti-CD42b antibody, which specifically binds the modified extracellular domain of GPIbα of the recombinant polypeptides and was used to indirectly cross-link the recombinant polypeptides to the multi-well plate (i.e., the solid support). Various control samples, standards, and serial dilutions thereof were added to different wells of the multi-well plate including plasma samples associated with type 1, type 2B, and type 3 von Willebrand Disease, control samples of pooled human blood plasma, control samples of human blood plasma known not to have von Willebrand Disease, a 2× serial dilution of a reference standard of pooled human plasma from no dilution to 16-fold dilution, and goat blood serum as a negative control. […] Bound vWF was quantified by monitoring the conversion of a horseradish peroxidase substrate into product by absorption spectroscopy at 450 nm.

[3] = molecular target: recombinant von Willebrand Factor A1 domain (amino acids 1277-1453 of human vWF) (human) (UniProt P04275); assay: SPR (Biacore); vWF A1 domain on CM5 chip, soluble polypeptide; Kd from on- and off-rates; SPR (Biacore), vWF A1 domain on CM5 chip

T1 sequence (P04275 764-2813 limits assumed): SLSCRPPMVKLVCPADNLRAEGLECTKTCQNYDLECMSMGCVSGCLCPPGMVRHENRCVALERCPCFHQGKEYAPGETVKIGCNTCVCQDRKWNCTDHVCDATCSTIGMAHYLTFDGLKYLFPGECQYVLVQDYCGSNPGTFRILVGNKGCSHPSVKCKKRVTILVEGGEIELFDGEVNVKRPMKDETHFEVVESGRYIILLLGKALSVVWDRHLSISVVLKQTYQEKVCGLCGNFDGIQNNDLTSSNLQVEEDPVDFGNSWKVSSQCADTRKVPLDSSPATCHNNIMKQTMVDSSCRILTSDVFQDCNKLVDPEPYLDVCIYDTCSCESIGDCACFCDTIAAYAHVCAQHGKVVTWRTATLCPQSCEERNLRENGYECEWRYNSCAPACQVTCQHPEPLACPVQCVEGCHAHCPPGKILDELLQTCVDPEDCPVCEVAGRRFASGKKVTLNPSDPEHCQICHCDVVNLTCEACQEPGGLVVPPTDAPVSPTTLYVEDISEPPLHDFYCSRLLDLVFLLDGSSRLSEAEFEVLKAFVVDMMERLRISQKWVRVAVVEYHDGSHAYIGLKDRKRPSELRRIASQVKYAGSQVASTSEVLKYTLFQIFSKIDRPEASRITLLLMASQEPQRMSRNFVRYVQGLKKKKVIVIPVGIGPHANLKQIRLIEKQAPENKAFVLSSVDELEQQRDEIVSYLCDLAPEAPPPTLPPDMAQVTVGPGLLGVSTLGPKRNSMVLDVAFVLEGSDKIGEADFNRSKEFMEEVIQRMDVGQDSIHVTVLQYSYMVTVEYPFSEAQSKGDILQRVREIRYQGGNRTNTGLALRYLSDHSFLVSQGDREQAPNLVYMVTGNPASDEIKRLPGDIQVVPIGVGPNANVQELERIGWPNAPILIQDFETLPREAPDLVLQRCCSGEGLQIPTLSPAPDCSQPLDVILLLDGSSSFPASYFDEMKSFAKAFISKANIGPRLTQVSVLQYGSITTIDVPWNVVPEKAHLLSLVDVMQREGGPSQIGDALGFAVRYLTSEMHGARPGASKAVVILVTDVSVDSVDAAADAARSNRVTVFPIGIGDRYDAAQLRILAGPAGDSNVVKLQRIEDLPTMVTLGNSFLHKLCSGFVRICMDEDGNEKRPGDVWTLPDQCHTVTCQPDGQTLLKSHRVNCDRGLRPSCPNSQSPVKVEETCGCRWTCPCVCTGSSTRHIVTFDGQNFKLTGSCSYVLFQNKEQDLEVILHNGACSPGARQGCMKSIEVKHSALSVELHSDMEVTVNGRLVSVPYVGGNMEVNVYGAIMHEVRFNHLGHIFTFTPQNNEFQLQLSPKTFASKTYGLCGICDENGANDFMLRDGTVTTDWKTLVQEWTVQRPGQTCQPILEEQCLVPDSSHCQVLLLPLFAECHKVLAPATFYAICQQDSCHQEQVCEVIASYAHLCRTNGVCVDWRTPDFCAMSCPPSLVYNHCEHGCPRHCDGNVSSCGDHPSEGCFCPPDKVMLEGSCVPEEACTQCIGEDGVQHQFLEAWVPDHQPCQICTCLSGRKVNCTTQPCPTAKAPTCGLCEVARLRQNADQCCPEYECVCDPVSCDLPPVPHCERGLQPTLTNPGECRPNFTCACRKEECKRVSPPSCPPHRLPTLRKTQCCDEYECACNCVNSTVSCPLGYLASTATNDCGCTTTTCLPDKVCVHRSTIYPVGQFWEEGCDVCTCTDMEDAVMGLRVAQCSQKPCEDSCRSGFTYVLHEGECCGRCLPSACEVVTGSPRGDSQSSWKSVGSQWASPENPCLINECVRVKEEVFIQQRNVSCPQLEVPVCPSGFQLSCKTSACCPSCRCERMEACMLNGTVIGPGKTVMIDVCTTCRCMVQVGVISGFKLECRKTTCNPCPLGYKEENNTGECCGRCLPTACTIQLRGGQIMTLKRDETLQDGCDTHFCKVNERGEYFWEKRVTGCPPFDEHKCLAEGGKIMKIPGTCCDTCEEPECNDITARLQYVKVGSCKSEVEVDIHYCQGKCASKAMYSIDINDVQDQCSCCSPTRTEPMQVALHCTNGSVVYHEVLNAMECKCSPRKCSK
Sequence of recombinant von Willebrand Factor A1 domain (amino acids 1277-1453 of human vWF) (human) (P04275 1277-1453 limits assumed, form in doubt): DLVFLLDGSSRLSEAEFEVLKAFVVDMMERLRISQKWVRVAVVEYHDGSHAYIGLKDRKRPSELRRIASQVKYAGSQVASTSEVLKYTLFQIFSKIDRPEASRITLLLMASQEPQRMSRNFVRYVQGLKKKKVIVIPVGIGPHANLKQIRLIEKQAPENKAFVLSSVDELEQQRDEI

B1: dimeric polypeptide of SEQ ID NO: 21: GPIbα extracellular domain with C65S and G233T, murine IgG1 Fc dimerization domain, 8-His tag (Fc fusion)
chain: HPICEVSKVASHLEVNCDKRNLTALPPDLPKDTTILHLSENLLYTFSLATLMPYTRLTQLNLDRSELTKLQVDGTLPVLGTLDLSHNQLQSLPLLGQTLPALTVLDVSFNRLTSLPLGALRGLGELQELYLKGNELKTLPPGLLTPTPKLEKLSLANNNLTELPAGLLNGLENLDTLLLQENSLYTIPKGFFGSHLLPFAFLHGNPWLCNCEILYFRRWLQDNAENVYVWKQTVDVKAMTSNVASVQCDNSDKFPVYKYPGKGCPTLGDEGDTDLYDYYPEEDTEGDKVRVPRDCGCKPCICTVPEVSSVFIFPPKPKDVLTITLTPKVTCVVVDISKDDPEVQFSWFVDDVEVHTAQTQPREEQFNSTFRSVSELPIMHQDWLNGKEFKCRVNSAAFPAPIEKTISKTKGRPKAPQVYTIPPPKEQMAKDKVSLTCMITDFFPEDITVEWQWNGQPAENYKNTQPIMDTDGSYFVYSKLNVQKSNWEAGNTFTCSVLHEGLHNHHTEKSLSHSPGIGHHHHHHHH
notes: On particles in fluorescence anisotropy, soluble in SPR, captured by anti-CD42b in ELISA; also called G233T mutant; G233T recombinant polypeptide
Kd [1]: 67 nM and < 500 nM
binding result [2]: binds
Kd [3]: 58 nM

B2: dimeric polypeptide of SEQ ID NO: 31: GPIbα extracellular domain with C65S and K237V, murine Fc dimerization domain (Fc fusion)
chain: B1 chain with T233G, K237V
notes: also called K237V mutant
Kd [1]: < 500 nM and 300 nM
binding result [2]: binds

Next, values leading:

Kd [1]: 1250 nM
Molecule: dimeric polypeptide of SEQ ID NO: 37 (WT): GPIbα extracellular domain without gain- or loss-of-function mutation, murine Fc dimerization domain (Fc fusion)

Kd [1]: < 500 nM and 250 nM
binding result [2]: binds
B3: dimeric polypeptide of SEQ ID NO: 30: GPIbα extracellular domain with C65S and D235V, murine Fc dimerization domain (Fc fusion)
chain: B1 chain with T233G, D235V
notes: also called D235V mutant
